Results as given in US20240279278A1, “NMU RECEPTOR 2 AGONISTS” (Boehringer Ingelheim International GmbH, priority 2023, published 2024).

T1: human neuromedin U receptor 1 (human, UniProt Q9HB89 24-426)
T1 sequence (looked up): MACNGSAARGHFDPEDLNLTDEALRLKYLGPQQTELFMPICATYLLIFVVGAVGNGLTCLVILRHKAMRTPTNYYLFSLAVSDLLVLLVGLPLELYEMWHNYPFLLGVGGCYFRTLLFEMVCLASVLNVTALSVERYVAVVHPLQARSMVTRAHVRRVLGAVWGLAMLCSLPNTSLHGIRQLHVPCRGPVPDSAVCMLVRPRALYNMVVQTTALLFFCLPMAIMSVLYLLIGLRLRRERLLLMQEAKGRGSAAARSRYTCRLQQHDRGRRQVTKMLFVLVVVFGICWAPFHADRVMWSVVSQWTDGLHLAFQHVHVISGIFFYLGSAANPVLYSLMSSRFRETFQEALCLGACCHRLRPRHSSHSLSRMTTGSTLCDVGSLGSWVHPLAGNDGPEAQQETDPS


Legend:
[1] = cited from earlier work
[2] = target: T1, human neuromedin U receptor 1; assay: cell-based or functional assay
[3] = target: human neuromedin U receptor 2 (human, UniProt Q9GZQ4 1-415); assay: cell-based or functional assay
Chain of human neuromedin U receptor 2 (Q9GZQ4 whole entry): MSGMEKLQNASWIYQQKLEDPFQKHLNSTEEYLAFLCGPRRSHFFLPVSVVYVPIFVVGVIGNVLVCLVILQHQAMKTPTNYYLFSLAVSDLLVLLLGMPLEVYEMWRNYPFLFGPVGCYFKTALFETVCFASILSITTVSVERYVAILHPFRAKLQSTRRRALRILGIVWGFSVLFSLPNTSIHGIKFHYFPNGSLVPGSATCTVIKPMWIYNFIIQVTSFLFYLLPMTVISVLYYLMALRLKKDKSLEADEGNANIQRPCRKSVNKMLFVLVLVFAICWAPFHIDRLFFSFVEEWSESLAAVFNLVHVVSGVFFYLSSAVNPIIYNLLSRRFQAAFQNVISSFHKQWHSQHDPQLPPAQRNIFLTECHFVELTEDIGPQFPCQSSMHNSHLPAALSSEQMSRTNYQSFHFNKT

| EC50 (activity as measured in Example 3) [2] [nM] | EC50 (activity as measured in Example 3) [3] [nM] | Molecule | half-life after subcutaneous injection [1] |
| --- | --- | --- | --- |
|  |  | Neuromedin U [native NMU] | less than 5 min |
| 68 | 2.1 | EEEXXXXXXXXXXXXXYFLXXPRG (HELM PEPTIDE1{[O=C(O)CCCCCCCCCCCCCCCCC(=O)[*:2]].[gGlu].[gGlu].[gGlu].[Sar].[Sar].[Sar].[Sar].[Sar].[Sar].[Sar].[Sar].[Sar].[Sar].[Sar].[Sar].[O=C(CN1CCN(CCN[*:1])CC1)[*:2]].Y.F.L.[Nle].[Orn].P.R.G.[am]}$$$$V2.0; SMILES CCCC[C@H](NC(=O)[C@H](CC(C)C)NC(=O)[C@H](Cc1ccccc1)NC(=O)[C@H](Cc1ccc(O)cc1)NC(=O)CN1CCN(CCNC(=O)CN(C)C(=O)CN(C)C(=O)CN(C)C(=O)CN(C)C(=O)CN(C)C(=O)CN(C)C(=O)CN(C)C(=O)CN(C)C(=O)CN(C)C(=O)CN(C)C(=O)CN(C)C(=O)CN(C)C(=O)CC[C@H](NC(=O)CC[C@H](NC(=O)CC[C@H](NC(=O)CCCCCCCCCCCCCCCCC(=O)O)C(=O)O)C(=O)O)C(=O)O)CC1)C(=O)N[C@@H](CCCN)C(=O)N1CCC[C@H]1C(=O)N[C@@H](CCCNC(=N)N)C(=O)NCC(N)=O) [C18DA-gGlu3-Sar12-AEPipAc-Tyr-Phe-Leu-Nle-Orn-Pro-Arg-Gly-NH2] |  |
| 0.37 | 0.047 | EEEXXXXXXXXXXXXXYFLXXPRG (HELM PEPTIDE1{[CCCCCCCCCCCCCCCCCC(=O)[*:2]].[gGlu].[gGlu].[gGlu].[Sar].[Sar].[Sar].[Sar].[Sar].[Sar].[Sar].[Sar].[Sar].[Sar].[Sar].[Sar].[O=C(CN1CCN(CCN[*:1])CC1)[*:2]].Y.F.[meL].[Nle].[Orn].P.R.G.[am]}$$$$V2.0; SMILES CCCCCCCCCCCCCCCCCC(=O)N[C@@H](CCC(=O)N[C@@H](CCC(=O)N[C@@H](CCC(=O)N(C)CC(=O)N(C)CC(=O)N(C)CC(=O)N(C)CC(=O)N(C)CC(=O)N(C)CC(=O)N(C)CC(=O)N(C)CC(=O)N(C)CC(=O)N(C)CC(=O)N(C)CC(=O)N(C)CC(=O)NCCN1CCN(CC(=O)N[C@@H](Cc2ccc(O)cc2)C(=O)N[C@@H](Cc2ccccc2)C(=O)N(C)[C@@H](CC(C)C)C(=O)N[C@@H](CCCC)C(=O)N[C@@H](CCCN)C(=O)N2CCC[C@H]2C(=O)N[C@@H](CCCNC(=N)N)C(=O)NCC(N)=O)CC1)C(=O)O)C(=O)O)C(=O)O) [C18A-gGlu3-Sar12-AEPipAc-Tyr-Phe-NMeLeu-Nle-Orn-Pro-Arg-Gly-NH2] |  |
